In PMC3212559, “Large-Scale Protein-Protein Interaction Analysis in Arabidopsis Mesophyll Protoplasts by Split Firefly Luciferase Complementation” (PLoS ONE, 2011):

How the values were obtained:
Assay in all cases: split reporter (BiFC, NanoBiT); SFLC in living Arabidopsis mesophyll protoplasts: Aux/IAA-FLucN or MYB30-FLucN co-expressed with ARFCTD-FLucC or Aux/IAA-FLucC for 6 hr; 10 µg of each construct, 2×10^4 cells, 96-well plate, D-luciferin; relative activity standardised against ARF5CTD-FLucC + IAA28-FLucN
Conditions in all cases: partners not purified
[1] = biological target: T1, ARF4 C-terminal domain (CTD)-FLucC (Arabidopsis, UniProt Q9ZTX9 665-788)
T1 construct: Arabidopsis auxin response factor 4, C-terminal dimerization domain (CTD); In the ARF-ARF tests the same CTD stood both as ARFCTD-FLucC and as ARFCTD-FLucN; one molecule for both; also called ARF4CTD-FLucC; ARFCTD-FLucC; source: Arabidopsis mesophyll protoplasts, transfected, in living cells (SFLC) and in lysate (co-IP); not shown: FLucC (firefly luciferase aa 394-550)
T1 sequence (looked up): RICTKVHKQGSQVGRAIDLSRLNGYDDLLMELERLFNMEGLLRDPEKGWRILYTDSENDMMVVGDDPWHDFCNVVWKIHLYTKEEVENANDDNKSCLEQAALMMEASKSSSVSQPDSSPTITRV

IAA18-FLucC = biological target: T2, IAA18-FLucC (Arabidopsis, UniProt O24408 1-267)
T2 construct: Arabidopsis Aux/IAA protein IAA18; also called Aux/IAA-FLucC; source: Arabidopsis mesophyll protoplasts, transfected, in living cells; not shown: FLucC (firefly luciferase aa 394-550)
T2 sequence (looked up): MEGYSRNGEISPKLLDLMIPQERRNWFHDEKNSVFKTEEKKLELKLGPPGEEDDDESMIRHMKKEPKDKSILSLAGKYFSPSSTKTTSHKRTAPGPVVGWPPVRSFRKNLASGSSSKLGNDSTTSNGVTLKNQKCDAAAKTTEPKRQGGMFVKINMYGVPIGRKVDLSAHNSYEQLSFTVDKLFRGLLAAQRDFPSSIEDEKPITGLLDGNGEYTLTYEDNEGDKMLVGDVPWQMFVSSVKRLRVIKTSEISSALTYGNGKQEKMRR

[2] = biological target: T3, ARF18 C-terminal domain (CTD)-FLucC (Arabidopsis, UniProt Q9C5W9 489-602)
T3 construct: Arabidopsis auxin response factor 18, C-terminal dimerization domain (CTD); In the ARF-ARF tests the same CTD stood both as ARFCTD-FLucC and as ARFCTD-FLucN; one molecule for both; also called ARF18CTD-FLucC; ARFCTD-FLucC; source: Arabidopsis mesophyll protoplasts, transfected, in living cells; not shown: FLucC (firefly luciferase aa 394-550)
T3 sequence (looked up): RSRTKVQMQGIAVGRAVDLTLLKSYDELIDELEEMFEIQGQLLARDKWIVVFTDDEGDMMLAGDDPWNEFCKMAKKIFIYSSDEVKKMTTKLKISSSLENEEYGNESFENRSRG

IAA9-FLucC = biological target: T4, IAA9-FLucC (Arabidopsis, UniProt Q38827 1-338)
T4 construct: Arabidopsis Aux/IAA protein IAA9; also called Aux/IAA-FLucC; source: Arabidopsis mesophyll protoplasts, transfected, in living cells; not shown: FLucC (firefly luciferase aa 394-550)
T4 sequence (looked up): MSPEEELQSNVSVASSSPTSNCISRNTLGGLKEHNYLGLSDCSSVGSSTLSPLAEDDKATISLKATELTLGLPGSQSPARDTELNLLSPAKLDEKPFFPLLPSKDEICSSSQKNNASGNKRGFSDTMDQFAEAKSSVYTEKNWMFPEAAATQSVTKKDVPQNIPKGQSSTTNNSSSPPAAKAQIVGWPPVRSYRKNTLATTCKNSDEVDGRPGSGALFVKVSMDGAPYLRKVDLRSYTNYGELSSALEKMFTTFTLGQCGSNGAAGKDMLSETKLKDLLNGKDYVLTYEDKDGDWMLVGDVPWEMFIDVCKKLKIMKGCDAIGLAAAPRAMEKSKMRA

IAA14-FLucC = biological target: T5, IAA14-FLucC (Arabidopsis, UniProt Q38832 1-228)
T5 construct: Arabidopsis Aux/IAA protein IAA14; also called Aux/IAA-FLucC; source: Arabidopsis mesophyll protoplasts, transfected, in living cells; not shown: FLucC (firefly luciferase aa 394-550)
T5 sequence (looked up): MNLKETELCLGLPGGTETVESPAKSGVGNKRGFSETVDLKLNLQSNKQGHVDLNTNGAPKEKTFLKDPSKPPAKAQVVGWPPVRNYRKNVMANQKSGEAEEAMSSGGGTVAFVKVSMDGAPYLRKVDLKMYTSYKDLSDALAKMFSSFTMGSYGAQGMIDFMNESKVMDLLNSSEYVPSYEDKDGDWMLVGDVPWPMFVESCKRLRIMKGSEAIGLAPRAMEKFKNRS

Measured: relative luciferase activity (standardised against ARF5CTD-FLucC + IAA28-FLucN)

B1: MYB30-FLucN (natural protein, UniProt Q9SCU7 1-323, looked up)
chain: MVRPPCCDKGGVKKGPWTPEEDIILVTYIQEHGPGNWRAVPTNTGLLRCSKSCRLRWTNYLRPGIKRGNFTEHEEKMIVHLQALLGNRWAAIASYLPQRTDNDIKNYWNTHLKKKLNKVNQDSHQELDRSSLSSSPSSSSANSNSNISRGQWERRLQTDIHLAKKALSEALSPAVAPIITSTVTTTSSSAESRRSTSSASGFLRTQETSTTYASSTENIAKLLKGWVKNSPKTQNSADQIASTEVKEVIKSDDGKECAGAFQSFSEFDHSYQQAGVSPDHETKPDITGCCSNQSQWSLFEKWLFEDSGGQIGDILLDENTNFF
notes: transcription factor MYB30, the unrelated protein used as negative control; source: Arabidopsis mesophyll protoplasts, transfected, in living cells; not shown: FLucN (firefly luciferase aa 1-398)
< 0.1: all assays above
